tested on: Escherichia coli TOP10; test: shrunken log2 fold change of peptide-encoding DNA abundance (4.5 h post-induction vs induction); higher = less antimicrobial activity (less host growth inhibition); details: time post-induction: 4.5 h; library: site-saturation at positions 5, 18, 19, 20
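Note: peptides expressed intracellularly from a pBAD plasmid library in pooled LB shake-flask culture, induced with 0.3% L-arabinose, DNA abundance read by NGS, three biological replicates, DESeq2 with apeglm shrinkage.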

Compared with RRIRTRPPRLPRPRPRPSPWPRP, RRIRKRPPRLPRPRPRPFWFPRP is higher in “shrunken log2 fold change” value: -0.114 for the first, 0.247 for the second.

RRIRPRPPRLPRPRPRPICEPRP and RRIRERPPRLPRPRPRPTGPPRP are within 0.2 log units of each other in “shrunken log2 fold change” value: 0.227 for the first, 0.353 for the second.

RRIRLRPPRLPRPRPRPMHQPRP and RRIRWRPPRLPRPRPRPAGHPRP are within 0.2 log units of each other in “shrunken log2 fold change” value: 0.136 for the first, -0.0472 for the second.

RRIRNRPPRLPRPRPRPYAMPRP and RRIRYRPPRLPRPRPRPGCTPRP are within 0.2 log units of each other in “shrunken log2 fold change” value: 0.0743 for the first, -0.0794 for the second.

RRIRHRPPRLPRPRPRPRESPRP and RRIRYRPPRLPRPRPRPMALPRP are within 0.2 log units of each other in “shrunken log2 fold change” value: -0.0496 for the first, -0.142 for the second.

Compared with RRIRFRPPRLPRPRPRPISLPRP, RRIRNRPPRLPRPRPRPFYMPRP is higher in “shrunken log2 fold change” value: -0.452 for the first, -0.18 for the second.

Compared with RRIRSRPPRLPRPRPRPPWGPRP, RRIRFRPPRLPRPRPRPWDDPRP is lower in “shrunken log2 fold change” value: 0.317 for the first, -0.636 for the second.

Going from RRIRERPPRLPRPRPRPWEEPRP to RRIRSRPPRLPRPRPRPPSGPRP, the “shrunken log2 fold change” value rises from -0.0572 to 0.489.

Going from RRIRLRPPRLPRPRPRPWRSPRP to RRIRNRPPRLPRPRPRPVQTPRP, the “shrunken log2 fold change” value rises from -0.0908 to 0.12.

Compared with RRIRPRPPRLPRPRPRPCKVPRP, RRIRTRPPRLPRPRPRPASLPRP is higher in “shrunken log2 fold change” value: -0.348 for the first, 0.105 for the second.

Going from RRIRHRPPRLPRPRPRPCCRPRP to RRIRGRPPRLPRPRPRPYRRPRP, the “shrunken log2 fold change” value rises from -0.276 to -0.00129.

RRIRPRPPRLPRPRPRPHFDPRP and RRIRHRPPRLPRPRPRPRQTPRP are within 0.2 log units of each other in “shrunken log2 fold change” value: -0.0993 for the first, 0.0257 for the second.

RRIRGRPPRLPRPRPRPFWAPRP and RRIRLRPPRLPRPRPRPKWLPRP are within 0.2 log units of each other in “shrunken log2 fold change” value: 0.325 for the first, 0.139 for the second.

First: RRIRVRPPRLPRPRPRPSEWPRP
Second: RRIRKRPPRLPRPRPRPLGVPRP
The “shrunken log2 fold change” value of the first is lower: -0.0811 for the first, 0.438 for the second.

RRIRCRPPRLPRPRPRPLPQPRP and RRIRVRPPRLPRPRPRPNTKPRP are within 0.2 log units of each other in “shrunken log2 fold change” value: 0.334 for the first, 0.181 for the second.

Going from RRIRCRPPRLPRPRPRPFWVPRP to RRIRHRPPRLPRPRPRPVHTPRP, the “shrunken log2 fold change” value falls from 0.0496 to -0.292.

First: RRIRWRPPRLPRPRPRPYSIPRP
Second: RRIRNRPPRLPRPRPRPNGQPRP
The “shrunken log2 fold change” value of the first is lower: -0.296 for the first, -0.0686 for the second.

RRIRGRPPRLPRPRPRPSQYPRP and RRIRWRPPRLPRPRPRPWEMPRP are within 0.2 log units of each other in “shrunken log2 fold change” value: -0.034 for the first, -0.0156 for the second.

Compared with RRIRWRPPRLPRPRPRPLKPPRP, RRIRVRPPRLPRPRPRPLIMPRP is lower in “shrunken log2 fold change” value: 0.0915 for the first, -0.502 for the second.

Compared with RRIRIRPPRLPRPRPRPVRMPRP, RRIRDRPPRLPRPRPRPDRYPRP is lower in “shrunken log2 fold change” value: 0.109 for the first, -0.395 for the second.

First: RRIRNRPPRLPRPRPRPIDQPRP
Second: RRIRTRPPRLPRPRPRPFEFPRP
The “shrunken log2 fold change” value of the first is higher: -0.058 for the first, -0.508 for the second.

RRIRRRPPRLPRPRPRPDFCPRP and RRIRSRPPRLPRPRPRPQICPRP are within 0.2 log units of each other in “shrunken log2 fold change” value: -0.0293 for the first, -0.0872 for the second.

RRIRCRPPRLPRPRPRPRNIPRP and RRIRQRPPRLPRPRPRPISNPRP are within 0.2 log units of each other in “shrunken log2 fold change” value: -0.33 for the first, -0.223 for the second.

RRIRFRPPRLPRPRPRPVQGPRP and RRIRKRPPRLPRPRPRPCCNPRP are within 0.2 log units of each other in “shrunken log2 fold change” value: -0.169 for the first, 0.0185 for the second.

RRIRFRPPRLPRPRPRPWLKPRP and RRIRARPPRLPRPRPRPPYVPRP are within 0.2 log units of each other in “shrunken log2 fold change” value: -0.111 for the first, -0.131 for the second.

First: RRIRRRPPRLPRPRPRPRGCPRP
Second: RRIRQRPPRLPRPRPRPSIKPRP
The “shrunken log2 fold change” value of the first is higher: 0.984 for the first, -0.425 for the second.

RRIRDRPPRLPRPRPRPEHFPRP and RRIRMRPPRLPRPRPRPFMDPRP are within 0.2 log units of each other in “shrunken log2 fold change” value: -0.138 for the first, -0.119 for the second.

First: RRIRIRPPRLPRPRPRPWCWPRP
Second: RRIRQRPPRLPRPRPRPEEPPRP
The “shrunken log2 fold change” value of the first is lower: -0.146 for the first, 0.0685 for the second.

RRIRQRPPRLPRPRPRPIIHPRP and RRIRHRPPRLPRPRPRPTTVPRP are within 0.2 log units of each other in “shrunken log2 fold change” value: -0.054 for the first, -0.0474 for the second.

RRIRGRPPRLPRPRPRPVITPRP and RRIRNRPPRLPRPRPRPMLQPRP are within 0.2 log units of each other in “shrunken log2 fold change” value: -0.09 for the first, 0.00157 for the second.

RRIRERPPRLPRPRPRPKFSPRP and RRIRNRPPRLPRPRPRPPVLPRP are within 0.2 log units of each other in “shrunken log2 fold change” value: -0.0396 for the first, 0.124 for the second.

RRIRLRPPRLPRPRPRPVDFPRP and RRIRNRPPRLPRPRPRPHYTPRP are within 0.2 log units of each other in “shrunken log2 fold change” value: 0.0727 for the first, -0.0895 for the second.

RRIRVRPPRLPRPRPRPPIHPRP and RRIRMRPPRLPRPRPRPCAFPRP are within 0.2 log units of each other in “shrunken log2 fold change” value: 0.042 for the first, 0.121 for the second.

RRIRPRPPRLPRPRPRPECYPRP and RRIRSRPPRLPRPRPRPGRSPRP are within 0.2 log units of each other in “shrunken log2 fold change” value: 0.044 for the first, 0.109 for the second.

Compared with RRIRCRPPRLPRPRPRPFAEPRP, RRIRARPPRLPRPRPRPDRCPRP is higher in “shrunken log2 fold change” value: -0.0347 for the first, 0.285 for the second.

RRIRSRPPRLPRPRPRPWFFPRP and RRIRSRPPRLPRPRPRPDRNPRP are within 0.2 log units of each other in “shrunken log2 fold change” value: -0.197 for the first, -0.228 for the second.

Going from RRIRGRPPRLPRPRPRPKCQPRP to RRIRYRPPRLPRPRPRPPFMPRP, the “shrunken log2 fold change” value falls from 0.581 to -0.422.

Compared with RRIRSRPPRLPRPRPRPMGWPRP, RRIRQRPPRLPRPRPRPCFNPRP is lower in “shrunken log2 fold change” value: 0.358 for the first, -0.161 for the second.

Compared with RRIRKRPPRLPRPRPRPDGGPRP, RRIRWRPPRLPRPRPRPWDPPRP is lower in “shrunken log2 fold change” value: 0.157 for the first, -0.101 for the second.

First: RRIRRRPPRLPRPRPRPMLGPRP
Second: RRIRFRPPRLPRPRPRPSVHPRP
The “shrunken log2 fold change” value of the first is higher: 0.15 for the first, -0.233 for the second.

Going from RRIRDRPPRLPRPRPRPPKAPRP to RRIRARPPRLPRPRPRPMQMPRP, the “shrunken log2 fold change” value rises from -0.122 to 0.626.

Going from RRIRVRPPRLPRPRPRPSETPRP to RRIRVRPPRLPRPRPRPLQKPRP, the “shrunken log2 fold change” value rises from -0.14 to 0.0697.

RRIRCRPPRLPRPRPRPPQMPRP and RRIRSRPPRLPRPRPRPTSHPRP are within 0.2 log units of each other in “shrunken log2 fold change” value: 0.0913 for the first, -0.0965 for the second.

RRIRQRPPRLPRPRPRPRWPPRP and RRIRARPPRLPRPRPRPALGPRP are within 0.2 log units of each other in “shrunken log2 fold change” value: 0.616 for the first, 0.73 for the second.

Compared with RRIRMRPPRLPRPRPRPTWCPRP, RRIRERPPRLPRPRPRPFFIPRP is lower in “shrunken log2 fold change” value: -0.0681 for the first, -0.354 for the second.

RRIRHRPPRLPRPRPRPGYWPRP and RRIRYRPPRLPRPRPRPRVLPRP are within 0.2 log units of each other in “shrunken log2 fold change” value: -0.151 for the first, -0.322 for the second.

RRIRWRPPRLPRPRPRPCLYPRP and RRIRHRPPRLPRPRPRPTDEPRP are within 0.2 log units of each other in “shrunken log2 fold change” value: -0.0689 for the first, -0.123 for the second.

First: RRIRPRPPRLPRPRPRPEPPPRP
Second: RRIRHRPPRLPRPRPRPHTKPRP
The “shrunken log2 fold change” value of the first is higher: 0.474 for the first, -0.0831 for the second.

First: RRIRDRPPRLPRPRPRPRWHPRP
Second: RRIRWRPPRLPRPRPRPGTKPRP
The “shrunken log2 fold change” value of the first is higher: 0.42 for the first, 0.139 for the second.

Compared with RRIRERPPRLPRPRPRPHRRPRP, RRIRSRPPRLPRPRPRPMGMPRP is lower in “shrunken log2 fold change” value: 0.0407 for the first, -0.366 for the second.

Going from RRIRWRPPRLPRPRPRPADTPRP to RRIRYRPPRLPRPRPRPCLLPRP, the “shrunken log2 fold change” value falls from 0.0101 to -1.04.

RRIRIRPPRLPRPRPRPCHMPRP and RRIRNRPPRLPRPRPRPNGKPRP are within 0.2 log units of each other in “shrunken log2 fold change” value: -0.188 for the first, -0.16 for the second.

RRIRRRPPRLPRPRPRPHFDPRP and RRIRGRPPRLPRPRPRPTYPPRP are within 0.2 log units of each other in “shrunken log2 fold change” value: 0.216 for the first, 0.0703 for the second.

Compared with RRIRSRPPRLPRPRPRPLDVPRP, RRIRRRPPRLPRPRPRPPWSPRP is higher in “shrunken log2 fold change” value: -0.21 for the first, 0.421 for the second.

With RRIRQRPPRLPRPRPRPIAMPRP the “shrunken log2 fold change” value was -0.0149.
